Test results as given in PMC11786531.

The substances below were run against heparan sulfate proteoglycans (assay: SPR competition (HSPG with LF or LF mutant flowed over PEDV S protein immobilised on a CM5 chip)). Conditions: parent: est. 5.0; read off a plot.
Work on “Lactoferrin (from UniProt P14632) G1607L” yielded a response of 3.5 RU. Work on “Lactoferrin (from UniProt P14632) P1641L” yielded a response of 69 RU. In the case of “Lactoferrin (from UniProt P14632) P1963L”, the response is reported as 69 RU.
